Experimental data as given in PMC6362427, “Identification of Three (Iso)flavonoid Glucosyltransferases From Pueraria lobata” (Frontiers in Plant Science, 2019).

Tests used:
[1] = substrate: O=c1c(-c2ccc(O)cc2)coc2cc(O)cc(O)c12; assay: HPLC glucosylation assay; format: biochemical, Pueraria montana; settings: UDP-glucose co-substrate (5 mM in the activity assay), 50 mM Tris-HCl pH 8.0, 30°C
[2] = substrate: O=c1c(-c2ccc(O)cc2)coc2cc(O)ccc12; assay: HPLC glucosylation assay; format: biochemical, Pueraria montana; settings: UDP-glucose co-substrate (5 mM in the activity assay), 50 mM Tris-HCl pH 8.0, 30°C

Row | Protein | Km [1] | kcat [1] | kcat/Km [1] | Km [2] | kcat [2] | kcat/Km [2]
1 | PlUGT4 (Pueraria montana var. lobata) (protein, full-length ORF (464-477 residues range for the three), GST fusion in pGEX-2T (given as C-terminal fusion with GST tag), E. coli BL21, glutathione Sepharose purified) MEKPHIAVVPSPGFTHLVPILEFSKRLLHLHPEFHITCFIPSVGSPPSSSKAYLQTLPPTITSIFLPPITLDDVPDPSILALQIELSVNLSLPYIKQELESLCSRAKVVALVVDVFANGALDFAKELNLLSYIYLPQSAMLLSLYFYSTKLDEILSSAFRDLTKPIEIPGCVPIHNKDLPIHFQNLSSIGYKGFLERSKRFHVPDGVFMNTFLELEPGAIRALQELVKGKPKVYPVGPIIQMGSVGHENRVECLTWLDKQQEPNSVLYVSFGSGGTLSQEQLNELAFGLELSGQKFLWVVRAPSSVATVGYFCAETKDPLEFLPHGFLERTKEQGLVVPSWAPQIQVLSHGATGGFLSHCGWNSVLESVVQGVPVITWPLFAEQSLNAAMLTDDLKVALRPKVNESGLAEREEIAKVVRGLMEGNEGMEIRKRMGLLKIAAANAIKEDGSSTKTLSEVATSSRGF | 87.3 ± 38.9 µM | 0.014 ± 0.0021 s⁻¹ | 156 M⁻¹ s⁻¹ | 110.8 ± 36.4 µM | 0.0075 ± 0.0009 s⁻¹ | 67.1 M⁻¹ s⁻¹
2 | PlUGT57 (Pueraria montana var. lobata) (protein, full-length ORF (464-477 residues range for the three), GST fusion in pGEX-2T (given as C-terminal fusion with GST tag), E. coli BL21, glutathione Sepharose purified) MGSEAPIHVLMVSYPAQGHINPLLRLGKCLAAKGLFVTFTTSETAGKDMRKANNITDKSVIPVGDGFLKFDFFEDGMADDDVSKKKSLSDVSAQLELVGKQYVSQMIKKHAESHHPISCIINNPFVPWVCDVAAEHAIPSAMLWIQSSAVFTAYYSYFYKLVSFPSDADPYVDVQLSSVVLKHNEVPDFLHPFSPYRFLGTLILEQFKNLSKPFCVLVDSFEELEHDYIDYLSKFLDIRPVGPLFKTPIATGTSDIRGDFMKSDDCIEWLNSRAPASVVYISFGSIVYLPQEQVTEIAHGLLNSHVSFLWVLKPPPKGYGVPPHVLPDGFFEGTRDKGKVVQWSPQEEVLAHPSVACFLTHCGWNSSMEALTLGMPMLTFPAWGDQVTNAKFLVDVFGVGIKLGYGHAAKKVVSREEVKKCLLEATVGPKAEELKQISFKWKKAAEAAVAANGSSARNLDAFMKDIKKRGAVGVNEI | 7.68 ± 3.58 µM | 0.11 ± 0.01 s⁻¹ | 13700 M⁻¹ s⁻¹ | 16.3 ± 1.87 µM | 0.034 ± 0.0009 s⁻¹ | 2100 M⁻¹ s⁻¹
